Earlier results as cited in paper PMC7191063.
pKd, pKi: −log10 of the molar value.

What was measured:
trypsin (Bos taurus) [1] = biological target: trypsin (Bos taurus) (UniProt P00760)
trypsin (Bos taurus) [2] = biological target: trypsin (Bos taurus) (UniProt P00760); remark: listed apart in the source

Sequence of UniProt P00760 (P00760 149-246): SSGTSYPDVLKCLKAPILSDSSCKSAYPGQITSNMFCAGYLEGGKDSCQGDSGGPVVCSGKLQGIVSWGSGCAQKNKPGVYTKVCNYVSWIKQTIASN

Substance | pKi (trypsin (Bos taurus) [1]) | pKd (trypsin (Bos taurus) [2])
BWI-2c (from UniProt P86794) | 9.76 | –
VhTI (from UniProt P85981) | – | > 9.00
